Ends that are not written are not given here.

Assay [1] has as its target T1, type V tartrate-resistant acid phosphatase (TRAP) protein, immobilised on CM5 sensor chip. As to the kind of experiment: SPR, TRAP-functionalized surface, binding curve fit (n = 2, Ave. ± StDev). In general terms: SPR reads the build-up and loss of mass on a sensor chip optically.
In assay [2] the target is T1, type V tartrate-resistant acid …. As to the kind of experiment: SPR, TRAP amine-coupled to CM5 chip, steady-state response vs concentration fit.
Method: Surface plasmon resonance (SPR) is used to assess the affinity of peptides for TRAP. Series S Sensor CM5 Chips are functionalized with TRAP via 1-ethyl-3-(3-dimethylaminopropyl) carbodiimide (EDC)/N-hydroxysuccinimide (NHS) chemistry. Briefly, the chips, which have a carboxymethylated dextran functionality, are activated through the introduction of NHS and EDC. After activation, TRAP protein, at 30 μg/mL in sodium acetate (pH=5), is introduced to the surface. Ethanolamine-hydrochloric acid is used to quench unreacted carboxysuccinimide groups. Peptides are dissolved in running buffer of PBS with 0.005% Tween20. Peptides are analyzed in duplicate at different concentrations. Surface regeneration is achieved using a combination of 1 and 2 M NaCl and 1-50 mM NaOH solutions as necessary.
Target affinity can be determined by introducing increasing concentrations of the ligand to the surface. […] The binding response was measured and plotted against concentration (FIG. 4), allowing for a fitting of the data by a binding curve. From this fitting, values such as KD can be determined.
For assay [3] the target is unchanged. In words: SPR, TRAP-functionalized surface, binding curve fit.
Method: Quantitative analyses of peptide and polymer affinities were performed using SPR. […] The binding of any molecules to the surface of the sensor chips results in a change in the angle of incident light reflection, allowing highly-sensitive detection of miniscule amounts of ligand binding to the surface. Target affinity can be determined by introduction of increasing concentrations of the molecule to the surface (FIG. 38A and FIG. 38B). […] The binding response is measured and plotted against concentration, allowing for a fitting of the data by a binding curve. From this fitting, values such as the dissociation constant (KD) value can be determined. Through this technique, the affinity of peptides and peptide-functionalized polymers were analyzed.
Assay [4] shares this target. As to the kind of experiment: SPR, TRAP amine-coupled to CM5 chip, initial rate analysis of sensorgrams.
Method: Surface plasmon resonance (SPR) is used to assess the affinity of peptide-functionalized polymers for TRAP. Series S Sensor CM5 Chips are functionalized with TRAP via 1-ethyl-3-(3-dimethylaminopropyl) carbodiimide (EDC)/N-hydroxysuccinimide (NHS) chemistry. Briefly, the chips, which have a carboxymethylated dextran functionality, are activated through the introduction of NHS and EDC. After activation, TRAP protein, at 30 μg/mL in sodium acetate (pH=5), is introduced to the surface. Ethanolamine-hydrochloric acid is used to quench unreacted carboxysuccinimide groups. Polymers are dissolved in running buffer of PBS with 0.005% Tween20. Polymers are analyzed in duplicate at different concentrations. Surface regeneration is achieved using 1-10 mM NaOH solutions as necessary. […] Sensorgram data (FIG. 22) are exported from the SPR evaluation software after smoothing data of injection events and analyzed. Response units (RU) are converted into concentrations for rate analysis using the equation:
Where S is the concentration of polymer bound to the TRAP-functionalized surface and MW is the molecular weight of the polymer. The binding rates of polymers to TRAP are determined in the initial linear portion of association, within two seconds of the start of injection. […]
The target in assay [5] is T2, TRAP deposited by osteoclasts on human cortical bone wafers (human, UniProt P13686 22-325, limits assumed).
T2 construct: The protein is native TRAP deposited on bone, not purified; also called bone wafers decorated with TRAP; resorption pits
T2 sequence (looked up): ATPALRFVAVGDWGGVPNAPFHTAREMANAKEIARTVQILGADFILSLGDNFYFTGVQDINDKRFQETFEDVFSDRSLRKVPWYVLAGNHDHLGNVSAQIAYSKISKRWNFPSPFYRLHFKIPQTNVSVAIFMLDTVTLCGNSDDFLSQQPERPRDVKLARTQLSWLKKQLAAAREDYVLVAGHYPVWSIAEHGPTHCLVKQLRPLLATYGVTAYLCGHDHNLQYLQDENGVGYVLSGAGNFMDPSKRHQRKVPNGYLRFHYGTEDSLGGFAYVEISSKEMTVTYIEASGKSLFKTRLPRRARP
In words: confocal imaging of fluorescently labeled peptide incubated overnight on human cortical bone wafers. The procedure: Equal concentrations of fluorescently labeled TBP and SCP are prepared in 1× phosphate-buffered saline (PBS). Bone wafers are cut from cortical bone obtained from the femur of a human donor cadaver and incubated in peptide solutions overnight, washed twice with 1×PBS, and then visualized via confocal imaging. Stacked sections are compressed into 2D images to allow for qualitative analysis as in FIG. 3A through FIG. 3D.

B1: TRAP-binding peptide (TBP), TPLSYLKGLVTVG (peptide)
peptide: TPLSYLKGLVTVG-OH
modifications: also: fluorescent cadaverine label in bone wafer experiment, position not given here
notes: also called TRAP peptide
For B1, the Kd (as a rule, the free concentration of one partner at which half of the binding sites on the other are occupied at equilibrium, for simple one-to-one binding) in assay [1] was 795 µM; in assay [2] it was around 200 µM; in assay [3], around 700 µM.

B2: 10% TBP-functionalized PEG polymer (pTBP) of Table 4, M:CTA:I 300:1:0.1, Mn 40.1 kDa (other)
peptide: TPLSYLKGLVTVG-OH
modifications: not fully specified (N-terminus); also: copolymerized by RAFT with PEG methyl ether methacrylate (300 Da), ~9 peptides per chain, fluorescently labelled for bone-targeting studies, position not given here
notes: Random copolymer; Footnote e says it was used for the in vitro and in vivo bone-targeting studies, where it was fluorescently labeled; also called 10% TBP-functionalized polymer
In turn, B2 came in with a Kd in assay [4] of 60 µM.

B3: scrambled control peptide (SCP), VPVGTLSYLKLTG (peptide)
peptide: VPVGTLSYLKLTG-OH
modifications: not fully specified; also: fluorescent cadaverine label in bone wafer experiment, position not given here
notes: In the bone wafer experiment it carried a fluorescent cadaverine label; also called scrambled peptide
Turning to B3, in assay [5], the binding result is “no binding”.
